From paper PMC10786891, “Massively parallel profiling of RNA-targeting CRISPR-Cas13d”
Residue numbers refer to the chain shown, from its start. In names and notes the source's numbering stands.

T1: EsCas13d, nuclease-dead (Eubacterium siraeum, UniProt B0MS50, R295A;H300A;R849A;H854A)
T1 sequence: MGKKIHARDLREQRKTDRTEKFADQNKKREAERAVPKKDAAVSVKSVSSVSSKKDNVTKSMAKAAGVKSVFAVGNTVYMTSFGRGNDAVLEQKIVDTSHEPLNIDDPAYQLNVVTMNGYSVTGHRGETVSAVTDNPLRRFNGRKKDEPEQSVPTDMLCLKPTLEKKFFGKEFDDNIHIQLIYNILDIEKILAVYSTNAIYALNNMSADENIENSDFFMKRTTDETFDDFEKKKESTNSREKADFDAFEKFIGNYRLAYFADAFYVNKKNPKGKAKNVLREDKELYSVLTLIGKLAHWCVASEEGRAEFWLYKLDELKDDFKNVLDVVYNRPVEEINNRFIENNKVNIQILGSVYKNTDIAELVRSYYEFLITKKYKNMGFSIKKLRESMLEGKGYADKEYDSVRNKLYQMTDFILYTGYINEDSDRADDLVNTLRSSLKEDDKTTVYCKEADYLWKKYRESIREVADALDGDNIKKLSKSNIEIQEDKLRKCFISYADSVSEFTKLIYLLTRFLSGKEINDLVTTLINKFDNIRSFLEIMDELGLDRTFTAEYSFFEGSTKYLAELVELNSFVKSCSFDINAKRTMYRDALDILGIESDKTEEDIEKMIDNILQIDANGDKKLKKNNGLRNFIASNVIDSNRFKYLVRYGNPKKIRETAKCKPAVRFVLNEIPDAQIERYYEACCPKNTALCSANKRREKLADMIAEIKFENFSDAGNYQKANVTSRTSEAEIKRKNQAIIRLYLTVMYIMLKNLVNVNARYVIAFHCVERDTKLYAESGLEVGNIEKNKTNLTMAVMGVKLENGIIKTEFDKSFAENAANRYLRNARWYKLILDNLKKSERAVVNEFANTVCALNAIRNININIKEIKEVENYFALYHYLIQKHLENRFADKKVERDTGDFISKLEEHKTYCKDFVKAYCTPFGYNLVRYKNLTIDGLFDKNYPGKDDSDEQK

B1: target 1 del1,del7 (mixed)
RNA 1: CACCCGUGCAAAAAUGCAGGGGUCUAAAACUGAGCGGAUAACCUCUCUAUGG
RNA 2: GGGAAUGGAUCCACAUCUACGAAUUCGUACCAUAGAGAGGUUAUCGCUCCCGAGAUCGGAAGAGCACACGU
B2: target 1 U3G,U19G (mixed)
RNA 1: B1 RNA 1
RNA 2: GGGAAUGGAUCCACAUCUACGAAUUCGUACCAGAGAGAGGUUAUCCGCGCACCGAGAUCGGAAGAGCACACGU
B3: target 1 C6U,U11A (mixed)
RNA 1: B1 RNA 1
RNA 2: B2 RNA 2 with G33U, U41A, C46U, G49U
B4: target 1 insC 3' of 10,insU 3' of 9 (mixed)
RNA 1: B1 RNA 1
RNA 2: GGGAAUGGAUCCACAUCUACGAAUUCGUACCAUAGAGAGGUUCAUUCCGCUCACCGAGAUCGGAAGAGCACACGU
B5: target 1 insG 3' of 6,insG 3' of 6 (mixed)
RNA 1: B1 RNA 1
RNA 2: B4 RNA 2 with C43A, A44U, U45C, U46C, C47G, C48G
B6: target 1 insC 3' of 14,insA 3' of 3 (mixed)
RNA 1: B1 RNA 1
RNA 2: B4 RNA 2 with G39C, U41G, C43U, U46C, C48G, G49C, C50U, U51A
B7: target 1 G17U (mixed)
RNA 1: B1 RNA 1
RNA 2: B2 RNA 2 with G33U, G35U, G49U
B8: target 1 del8 (mixed)
RNA 1: B1 RNA 1
RNA 2: GGGAAUGGAUCCACAUCUACGAAUUCGUACCAUAGAGAGGUUACCGCUCACCGAGAUCGGAAGAGCACACGU
B9: target 1 C21U (mixed)
RNA 1: B1 RNA 1
RNA 2: B2 RNA 2 with C31U, G33U, G49U
B10: target 1 insG 3' of 18,insG 3' of 7 (mixed)
RNA 1: B1 RNA 1
RNA 2: B4 RNA 2 with A36G, G37A, A38G, G39A, U41G, C43U, U46C, C47G
B11: target 1 complement block 6-14 (mixed)
RNA 1: B1 RNA 1
RNA 2: GGGAAUGGAUCCACAUCUACGAAUUCGUACCAUAGAGUCCAAUAGGGCUCACCGAGAUCGGAAGAGCACACGU
B12: target 1 U8C,C22U (mixed)
RNA 1: B1 RNA 1
RNA 2: B2 RNA 2 with C30U, G33U, U44C, G49U
B13: target 1 insC 3' of 10,insG 3' of 1 (mixed)
RNA 1: B1 RNA 1
RNA 2: B4 RNA 2 with U46C, C48G, G49C, C50U, U51C, C52A, A53G
B14: target 1 C2G,G12C (mixed)
RNA 1: B1 RNA 1
RNA 2: B2 RNA 2 with G33U, G40C, G49U, C50G
B15: target 1 U10G,A20C (mixed)
RNA 1: B1 RNA 1
RNA 2: B2 RNA 2 with A32C, G33U, U42G, G49U
B16: target 1 C4U,U10A (mixed)
RNA 1: B1 RNA 1
RNA 2: B2 RNA 2 with G33U, U42A, C48U, G49U
B17: target 1 C6G (mixed)
RNA 1: B1 RNA 1
RNA 2: B2 RNA 2 with G33U, C46G, G49U
B18: target 1 insA 3' of 5,insA 3' of 3 (mixed)
RNA 1: B1 RNA 1
RNA 2: B4 RNA 2 with C43A, A44U, U45C, U46C, C47G, C48A, G49C, C50U, U51A
B19: target 1 insC 3' of 10,insU 3' of 1 (mixed)
RNA 1: B1 RNA 1
RNA 2: B4 RNA 2 with U46C, C48G, G49C, C50U, U51C, C52A, A53U
B20: target 1 A1C,A9U (mixed)
RNA 1: B1 RNA 1
RNA 2: B2 RNA 2 with G33U, A43U, G49U, A51C
B21: target 1 insC 3' of 10,insC 3' of 1 (mixed)
RNA 1: B1 RNA 1
RNA 2: B4 RNA 2 with U46C, C48G, G49C, C50U, U51C, C52A, A53C
B22: target 1 insU 3' of 15,insU 3' of 14 (mixed)
RNA 1: B1 RNA 1
RNA 2: B4 RNA 2 with A38U, G39A, G40U, U41G, U42G, C43U, A44U, U45A
B23: target 1 insU 3' of 9,insG 3' of 4 (mixed)
RNA 1: B1 RNA 1
RNA 2: B4 RNA 2 with C43A, A44U, U46C, C48G, G49C, C50G
B24: target 1 C2A,G13A (mixed)
RNA 1: B1 RNA 1
RNA 2: B2 RNA 2 with G33U, G39A, G49U, C50A
B25: target 1 insC 3' of 8,insA 3' of 3 (mixed)
RNA 1: B1 RNA 1
RNA 2: B4 RNA 2 with C43A, A44U, U45C, U46C, C48G, G49C, C50U, U51A
B26: target 1 insU 3' of 6,insC 3' of 5 (mixed)
RNA 1: B1 RNA 1
RNA 2: B4 RNA 2 with C43A, A44U, U45C, U46C, C47U, C48G, G49C
B27: target 1 C7U,C22A (mixed)
RNA 1: B1 RNA 1
RNA 2: B2 RNA 2 with C30A, G33U, C45U, G49U
B28: target 1 A1G,C21U (mixed)
RNA 1: B1 RNA 1
RNA 2: B2 RNA 2 with C31U, G33U, G49U, A51G
B29: target 1 insC 3' of 10,insA 3' of 2 (mixed)
RNA 1: B1 RNA 1
RNA 2: B4 RNA 2 with U46C, C48G, G49C, C50U, U51C, C52A
B30: target 1 A1C,G17U (mixed)
RNA 1: B1 RNA 1
RNA 2: B2 RNA 2 with G33U, G35U, G49U, A51C
B31: target 1 A1U,C21U (mixed)
RNA 1: B1 RNA 1
RNA 2: B2 RNA 2 with C31U, G33U, G49U, A51U
B32: target 1 del17 (mixed)
RNA 1: B1 RNA 1
RNA 2: B8 RNA 2 with G35A, A36G, G37A, A38G, G40U, U42A, A43U
B33: target 1 del13,del20 (mixed)
RNA 1: B1 RNA 1
RNA 2: GGGAAUGGAUCCACAUCUACGAAUUCGUACCUAGAGAGUUAUCCGCUCACCGAGAUCGGAAGAGCACACGU
B34: target 1 A1C,C21U (mixed)
RNA 1: B1 RNA 1
RNA 2: B2 RNA 2 with C31U, G33U, G49U, A51C

target: T1, EsCas13d, nuclease-dead; experiment: crRNA (strand 1, pre-loaded); Mg2+; 40 mM Tris-HCl pH 7.5, 150 mM NaCl, 6 mM MgCl2, 1 mM DTT, 0.1% Tween-20, 0.2 mg/ml BSA; 25 C; 10 min per concentration, then washed; settings: tags: His6-TwinStrep-SUMO cleaved; N-terminal SNAP kept (SNAP-Surface 488); label: 3' end held by stalled T7 RNA polymerase

Row | Binder | Kd [nM]
1 | B1 | 9.7 ± 0.6
2 | B2 | 35.9 ± 2.7
3 | B3 | 38.2 ± 2.4
4 | B4 | 66 ± 27
5 | B5 | 11.4 ± 0.5
6 | B6 | 24.8 ± 1.9
7 | B7 | 17 ± 1.3
8 | B8 | 10.5 ± 0.6
9 | B9 | 6.47 ± 0.24
10 | B10 | 34.9 ± 3
11 | B11 | 69 ± 27
12 | B12 | 28 ± 4
13 | B13 | 15.5 ± 1.4
14 | B14 | 8.4 ± 0.8
15 | B15 | 76 ± 29
16 | B16 | 47 ± 15
17 | B17 | 8.37 ± 0.31

Row | Binder | Kd [nM]
18 | B18 | 6.8 ± 0.6
19 | B19 | 26 ± 4
20 | B20 | 20 ± 5
21 | B21 | 13.5 ± 1
22 | B22 | 53 ± 4
23 | B23 | 13.6 ± 2.1
24 | B24 | 5.06 ± 0.27
25 | B25 | 11.8 ± 0.7
26 | B26 | 13.9 ± 0.8
27 | B27 | 11 ± 0.5
28 | B28 | 6.38 ± 0.24
29 | B29 | 19.4 ± 2.4
30 | B30 | 34 ± 9
31 | B31 | 7.6 ± 0.4
32 | B32 | 22.6 ± 1.6
33 | B33 | 56 ± 8
34 | B34 | 13 ± 4
